Like-named read-outs stand apart in the source and are kept apart here.
T1: IL10 receptor (IL10 receptor subunit alpha IL10Ra and beta subunit IL10Rb) on Ramos/STAT3-Luc and … (UniProt Q13651 22-578; Q08334 20-325, limits assumed)
T1 sequence (looked up) 1: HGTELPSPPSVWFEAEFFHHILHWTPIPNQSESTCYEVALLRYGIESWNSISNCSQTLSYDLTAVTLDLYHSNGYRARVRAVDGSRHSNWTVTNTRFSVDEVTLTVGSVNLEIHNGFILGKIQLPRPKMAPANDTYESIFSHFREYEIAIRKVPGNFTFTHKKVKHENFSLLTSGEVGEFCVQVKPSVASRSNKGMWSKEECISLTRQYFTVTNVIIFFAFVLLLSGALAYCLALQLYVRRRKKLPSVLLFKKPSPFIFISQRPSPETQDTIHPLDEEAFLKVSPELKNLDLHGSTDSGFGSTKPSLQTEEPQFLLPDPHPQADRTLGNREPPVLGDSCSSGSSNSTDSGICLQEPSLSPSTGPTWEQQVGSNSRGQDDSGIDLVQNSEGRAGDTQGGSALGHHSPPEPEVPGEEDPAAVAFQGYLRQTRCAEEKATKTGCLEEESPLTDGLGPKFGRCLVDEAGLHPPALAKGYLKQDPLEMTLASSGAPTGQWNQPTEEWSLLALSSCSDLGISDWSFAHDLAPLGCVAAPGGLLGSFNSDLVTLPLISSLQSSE
T1 sequence (looked up) 2: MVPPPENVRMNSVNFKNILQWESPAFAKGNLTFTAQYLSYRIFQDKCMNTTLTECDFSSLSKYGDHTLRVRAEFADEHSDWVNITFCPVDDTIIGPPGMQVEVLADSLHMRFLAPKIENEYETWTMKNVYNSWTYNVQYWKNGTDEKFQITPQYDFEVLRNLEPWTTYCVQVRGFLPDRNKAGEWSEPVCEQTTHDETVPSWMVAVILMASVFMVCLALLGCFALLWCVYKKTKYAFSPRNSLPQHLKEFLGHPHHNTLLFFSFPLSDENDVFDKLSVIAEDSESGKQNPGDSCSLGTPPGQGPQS

B1: Recombinant human IL10 (obtained from Peprotech, Princeton NJ, Product #200-10) (ligand)
chain: SPGQGTQSENSCTHFPGNLPNMLRDLRDAFSRVKTFFQMKDQLDNLLLKESLLEDFKGYLGCQALSEMIQFYLEEVMPQAENQDPDIKAHVNSLGENLKTLRLRLRRCHRFLPCENKSKAVEQVKNAFNKLQEKGIYKAMSEFDIFINYIEAYMTMKIRN
B2: IL10M2 (hIL10-3XG4S-Fc; Fc is IgG4s) (Fc fusion)
chain: SPGQGTQSENSCTHFPGNLPNMLRDLRDAFSRVKTFFQMKDQLDNLLLKESLLEDFKGYLGCQALSEMIQFYLEEVMPQAENQDPDIKAHVNSLGENLKTLRLRLRRCHRFLPCENKSKAVEQVKNAFNKLQEKGIYKAMSEFDIFINYIEAYMTMKIRNGGGGSGGGGSGGGGSESKYGPPCPPCPAPPVAGPSVFLFPPKPKDTLMISRTPEVTCVVVDVSQEDPEVQFNWYVDGVEVHNAKTKPREEQFNSTYRVVSVLTVLHQDWLNGKEYKCKVSNKGLPSSIEKTISKAKGQPREPQVYTLPPSQEEMTKNQVSLTCLVKGFYPSDIAVEWESNGQPENNYKTTPPVLDSDGSFFLYSRLTVDKSRWQEGNVFSCSVMHEALHNHYTQKSLSLSLGK
B3: IL10M3 (hIL10-1XG4S-Fc; Fc is murine IgG1) (Fc fusion)
chain: SPGQGTQSENSCTHFPGNLPNMLRDLRDAFSRVKTFFQMKDQLDNLLLKESLLEDFKGYLGCQALSEMIQFYLEEVMPQAENQDPDIKAHVNSLGENLKTLRLRLRRCHRFLPCENKSKAVEQVKNAFNKLQEKGIYKAMSEFDIFINYIEAYMTMKIRNGGGGSVPRDCGCKPCICTVPEVSSVFIFPPKPKDVLTITLTPKVTCVVVDISKDDPEVQFSWFVDDVEVHTAQTQPREEQFNSTFRSVSELPIMHQDWLNGKEFKCRVNSAAFPAPIEKTISKTKGRPKAPQVYTIPPPKEQMAKDKVSLTCMITDFFPEDITVEWQWNGQPAENYKNTQPIMDTDGSYFVYSKLNVQKSNWEAGNTFTCSVLHEGLHNHHTEKSLSHSPGK
B4: mIgG1 (murine IgG1 Fc isotype control; control antibody with murine IgG1 sequence) (antibody, V domains shown)
VH: QVQLQESGPGLVAPSQSLSITCTVSGFSLTTFGVHWVRQSPGKGLEWLGVIWADETTNYNSALMSRLSISKDNSKSQVFLKMNGLRTDDTAIYSCARSKVSYYFDYWGRGTTLTVSS
VL: NIMMTQSPSSLPVSPGEKVTMNCKSSRSVLYSLNQKNYLAWYQQKPGQSPKLLIYWASTRESGVPDRFTGSGSGTDFSLTISSVQAEDLAVYYCHQYLSSWTFGGGTKLEIKR
B5: hIgG4s (human IgG4 Fc isotype control; Fc is IgG4s) (antibody, V domains shown)
VH: EVQLVESGGGLVQPGGSLRLSCAASGFTLSTYAMTWVRQAPGKGLEWVSAINYRAANTWYADSVKGRFTISRDNSKNTLYLQMNSLRDEDTAVYYCAQDRVIIKDYYVMDVWGQGTTVTVSS
VL: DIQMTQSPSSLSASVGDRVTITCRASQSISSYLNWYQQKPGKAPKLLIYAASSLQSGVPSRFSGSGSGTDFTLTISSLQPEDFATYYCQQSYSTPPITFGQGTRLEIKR
B6: IL10M1 (Fc-3XG4S-hIL10; Fc is IgG4s) (Fc fusion)
chain: ESKYGPPCPPCPAPPVAGPSVFLFPPKPKDTLMISRTPEVTCVVVDVSQEDPEVQFNWYVDGVEVHNAKTKPREEQFNSTYRVVSVLTVLHQDWLNGKEYKCKVSNKGLPSSIEKTISKAKGQPREPQVYTLPPSQEEMTKNQVSLTCLVKGFYPSDIAVEWESNGQPENNYKTTPPVLDSDGSFFLYSRLTVDKSRWQEGNVFSCSVMHEALHNHYTQKSLSLSLGKGGGGSGGGGSGGGGSSPGQGTQSENSCTHFPGNLPNMLRDLRDAFSRVKTFFQMKDQLDNLLLKESLLEDFKGYLGCQALSEMIQFYLEEVMPQAENQDPDIKAHVNSLGENLKTLRLRLRRCHRFLPCENKSKAVEQVKNAFNKLQEKGIYKAMSEFDIFINYIEAYMTMKIRN
B7: hIgG1 (anti-FelD1 human IgG1 Fc isotype control) (antibody, V domains shown)
VH: QVQLQESGPGLVKPSETLSLTCTVSGGSISSYYWSWIRQPPGKGLEWIGYIYYSGRTNYNPSLKSRVTISVDTSKNQFSLKLSSVTAADTAIYYCARHRVTRTADSFDYWGQGTLVTVSS
VL: DIQMTQSPSSLSASVGDRVTITCQASQDINNYLNWYQQKTGKAPKFLIYDASNLETGVSSRFSGSGSGTDFTFTISSLQPEDVGTYYCHQYGDLPYTFGQGTKLEIKR
B8: IL10M8 (hIL10-Fc; Fc is IgG4s) (Fc fusion)
chain: SPGQGTQSENSCTHFPGNLPNMLRDLRDAFSRVKTFFQMKDQLDNLLLKESLLEDFKGYLGCQALSEMIQFYLEEVMPQAENQDPDIKAHVNSLGENLKTLRLRLRRCHRFLPCENKSKAVEQVKNAFNKLQEKGIYKAMSEFDIFINYIEAYMTMKIRNESKYGPPCPPCPAPPVAGPSVFLFPPKPKDTLMISRTPEVTCVVVDVSQEDPEVQFNWYVDGVEVHNAKTKPREEQFNSTYRVVSVLTVLHQDWLNGKEYKCKVSNKGLPSSIEKTISKAKGQPREPQVYTLPPSQEEMTKNQVSLTCLVKGFYPSDIAVEWESNGQPENNYKTTPPVLDSDGSFFLYSRLTVDKSRWQEGNVFSCSVMHEALHNHYTQKSLSLSLGK
B9: IL10M7 (hIL10-1XG4S-Fc; Fc is IgG4s) (Fc fusion)
chain: SPGQGTQSENSCTHFPGNLPNMLRDLRDAFSRVKTFFQMKDQLDNLLLKESLLEDFKGYLGCQALSEMIQFYLEEVMPQAENQDPDIKAHVNSLGENLKTLRLRLRRCHRFLPCENKSKAVEQVKNAFNKLQEKGIYKAMSEFDIFINYIEAYMTMKIRNGGGGSESKYGPPCPPCPAPPVAGPSVFLFPPKPKDTLMISRTPEVTCVVVDVSQEDPEVQFNWYVDGVEVHNAKTKPREEQFNSTYRVVSVLTVLHQDWLNGKEYKCKVSNKGLPSSIEKTISKAKGQPREPQVYTLPPSQEEMTKNQVSLTCLVKGFYPSDIAVEWESNGQPENNYKTTPPVLDSDGSFFLYSRLTVDKSRWQEGNVFSCSVMHEALHNHYTQKSLSLSLGK
B10: IL10M6 (hIL10-2XG4S-Fc; Fc is IgG4s) (Fc fusion)
chain: SPGQGTQSENSCTHFPGNLPNMLRDLRDAFSRVKTFFQMKDQLDNLLLKESLLEDFKGYLGCQALSEMIQFYLEEVMPQAENQDPDIKAHVNSLGENLKTLRLRLRRCHRFLPCENKSKAVEQVKNAFNKLQEKGIYKAMSEFDIFINYIEAYMTMKIRNGGGGSGGGGSESKYGPPCPPCPAPPVAGPSVFLFPPKPKDTLMISRTPEVTCVVVDVSQEDPEVQFNWYVDGVEVHNAKTKPREEQFNSTYRVVSVLTVLHQDWLNGKEYKCKVSNKGLPSSIEKTISKAKGQPREPQVYTLPPSQEEMTKNQVSLTCLVKGFYPSDIAVEWESNGQPENNYKTTPPVLDSDGSFFLYSRLTVDKSRWQEGNVFSCSVMHEALHNHYTQKSLSLSLGK

Key:
Assay in all cases: cell-based or functional assay
[1] = target: T1, IL10 receptor (IL10 receptor subunit …)
[2] = target: T1, IL10 receptor (IL10 receptor subunit …); remark: listed apart in the source
[3] = target: T1, IL10 receptor (IL10 receptor subunit …); remark: listed apart in the source

| Binder | EC50 [M] of luciferase activity, Ramos/STAT3-Luc reporter cells [1] [M] | EC50 [M] of luciferase activity, TF-1/STAT3-Luc reporter cells [1] [M] | Fold Induction of luciferase activity, Ramos/Stat3-Luc reporter cells [1] [fold] | Fold Induction of luciferase activity, TF-1/Stat3-Luc reporter cells [1] [fold] | Fold Induction of luciferase activity, Ramos/Stat3-Luc reporter cells [2] [fold] | Fold Induction of luciferase activity, TF-1/Stat3-Luc reporter cells [2] [fold] | EC50 of luciferase activity, Ramos/Stat3-Luc reporter cells [3] [nM] | EC50 of luciferase activity, TF-1/Stat3-Luc reporter cells [3] [nM] | Fold Induction of luciferase activity, Ramos/Stat3-Luc reporter cells [3] [fold] | Fold Induction of luciferase activity, TF-1/Stat3-Luc reporter cells [3] [fold] | also measured |
| --- | --- | --- | --- | --- | --- | --- | --- | --- | --- | --- | --- |
| B1 | 5.07e-11 | 7.05e-11 | 4.5 | 5.9 | 5.16 | 4.02 |  |  |  |  | EC50 of luciferase activity, Ramos/Stat3-Luc reporter cells [2]: 0.0482 nM; EC50 of luciferase activity, TF-1/Stat3-Luc reporter cells [2]: 0.063 nM |
| B2 | 2.13e-10 | 5.15e-10 | 3.6 | 4.1 |  |  |  |  |  |  | EC50 of luciferase activity, Ramos/Stat3-Luc reporter cells (IL10M2 L1) [2]: 0.254 nM; EC50 of luciferase activity, Ramos/Stat3-Luc reporter cells (IL10M2 L2) [2]: 0.192 nM; EC50 of luciferase activity, TF-1/Stat3-Luc reporter cells (IL10M2 L1) [2]: 0.507 nM; EC50 of luciferase activity, TF-1/Stat3-Luc reporter cells (IL10M2 L2) [2]: 0.45 nM; Fold Induction of luciferase activity, Ramos/Stat3-Luc reporter cells (IL10M2 L1) [2]: 3.42 fold; Fold Induction of luciferase activity, Ramos/Stat3-Luc reporter cells (IL10M2 L2) [2]: 3.06 fold; Fold Induction of luciferase activity, TF-1/Stat3-Luc reporter cells (IL10M2 L1) [2]: 2.85 fold; Fold Induction of luciferase activity, TF-1/Stat3-Luc reporter cells (IL10M2 L2) [2]: 2.68 fold |
| B3 | 2.19e-10 | 4.51e-10 | 3.2 | 3.4 |  |  |  |  |  |  |  |
| B4 |  |  | 1.1 | 1.1 |  |  |  |  |  |  |  |
| B5 |  |  | 1 | 1.4 | 1.01 | 0.99 |  |  |  |  |  |
| B6 | 1.19e-10 | 1.18e-10 | 3.7 | 4.8 |  |  |  |  |  |  | EC50 of luciferase activity, Ramos/Stat3-Luc reporter cells (IL10M1 L1) [2]: 0.117 nM; EC50 of luciferase activity, Ramos/Stat3-Luc reporter cells (IL10M1 L2) [2]: 0.148 nM; EC50 of luciferase activity, TF-1/Stat3-Luc reporter cells (IL10M1 L1) [2]: 0.139 nM; EC50 of luciferase activity, TF-1/Stat3-Luc reporter cells (IL10M1 L2) [2]: 0.134 nM; Fold Induction of luciferase activity, Ramos/Stat3-Luc reporter cells (IL10M1 L1) [2]: 4.11 fold; Fold Induction of luciferase activity, Ramos/Stat3-Luc reporter cells (IL10M1 L2) [2]: 3.66 fold; Fold Induction of luciferase activity, TF-1/Stat3-Luc reporter cells (IL10M1 L1) [2]: 4.12 fold; Fold Induction of luciferase activity, TF-1/Stat3-Luc reporter cells (IL10M1 L2) [2]: 3.4 fold |
| B7 |  |  |  |  | 1.1 | 1 |  |  |  |  |  |
| B8 |  |  |  |  |  |  | 0.268 | 0.484 | 3.2 | 2.34 |  |
| B9 |  |  |  |  |  |  | 0.172 | 0.319 | 2.88 | 2.36 |  |
| B10 |  |  |  |  |  |  | 0.127 | 0.361 | 3.02 | 2.66 |  |

— patent publication US12187772 (Regeneron, dated 2025)
